Changes are numbered by the printed parent chain. In names and notes the source's numbering stands. No end group written: not given here.
What was measured:
[1] = target: T1, p300 (CH1 domain, residues 330–420) (Homo sapiens, UniProt Q09472); assay: ITC of expressed HIF-1α, CITED2 and CITIF peptides binding to p300; conditions: pH 7.5
T1 construct: GST (N, cleaved yes); made in house; host or cells: E. coli BL21 pLysS (pGEX-4T1-p300)
Description: We hypothesized that it would be possible to enhance the affinity of HIF-1α for p300 by hybridising key regions of both CITED2 and HIF-1α (see later). We first measured the affinity of the parent peptides. A particular difficulty in comparing these peptide sequences is the different length used in different studies.[28,33,35,36] […]
data and fitted thermogram (lower) (40 mM sodium phosphate, pH 7.5 100 mM NaCl, 1 mM DTT buffer using 5 µM protein in the cell and 60 µM ligand in the syringe at 35°C); (b) Thermodynamic signatures for each interaction. […]
(§1) Isothermal titration calorimetry
(§2) Prior to ITC measurement p300 CH1 was dialysed or run on S75 column in the buffer used for titration, and the same buffer was used to dissolve the pure peptides. Experiments with […]
(§3) MicroCal iTC200 instrument with 10 µM protein in the cell and 100 µM ligand in the syringe at 37°C, using 2 µl injections and 120 or 180 s spacing between injections. Experiments with the […]
(§4) instrument using 3-5 µM protein in the cell and 40-60 µM ligand in the syringe at 35°C, using 5 µl injections and 180 s spacing between injections, for 40 injections. Titrations were performed in 40 mM Na-phosphate, pH 7.5 100 mM NaCl, 1 mM DTT buffer except for GFP-HIF-1α and variants for which 25 mM Tris-HCl, 150 mM NaCl, 1mM DTT, pH 7.4 buffer was used. Data were analysed using NITPIC3 and fitted using SEDPHAT4 to a single binding site model (fixed 1:1 stoichiometry), with baseline and incompetent protein fraction as adjustable parameters. 68 % confidence intervals for the fitted values were determined using the automatic confidence interval search implemented in SEDPHAT. Figures were prepared using […]

[2] = target: T1, p300 (CH1 domain, residues 330–420); assay: ITC of chemically synthesized HIF-1α, CITED2 and CITIF peptides binding to p300; conditions: pH 7.5
Description: Raw ITC (upper) data and fitted thermogram (lower) (40 mM sodium phosphate, pH 7.5 100 mM NaCl, 1 mM DTT buffer using 5 μM protein in the cell and 60 μM ligand in the syringe at 35 °C) error bars represent the estimated integration errors; (b) Thermodynamic signatures for each interaction.
Figure S8 (a) Sequences of the truncated CITED2 peptides and isothermal titration […]
µM peptide in the syringe. All measurements were carried out 40 mM sodium phosphate, pH 7.5 100 mM NaCl, 1 mM DTT buffer at 35°C. Error bars represent the estimated integration […]
Table S2 Thermodynamic parameters for shortened CITED2 sequences. 68% confidence intervals for the fitting are shown in brackets. Data fitted to a single binding site model, fixed 1:1 stoichiometry with incompetent protein fraction as an adjustable parameter. […]
as §1, §2, §3, §4

[3] = target: T1, p300 (CH1 domain, residues 330–420); assay: ITC of GFP-HIF-1α776–826 variants binding to p300; conditions: 37 °C, 25 mM Tris–HCl, 150 mM NaCl, 1 mM DTT, pH 7.4, 10 μM p300 in cell, 100 μM variant in syringe; for ΔH: 68% confidence interval in brackets
Description: (§5) Fig. 2 Biophysical analyses on the effects of HIF-1α sequence variant p300 binding affinity. (a) schematic depicting the equilibrium for interaction of GFP-HIF-1α776–826 variants and GST-p300 as studied by fluorescence anisotropy; (b) representative fluorescence anisotropy titration data for sAV and mAV GFP-HIF-1α776–826 peptides interacting with GST-p300 (25 mM Tris–HCl, 150 mM NaCl, 1 mM DTT, pH 7.4), error bars represent standard deviation of technical triplicates; (c) raw ITC data (upper) and fitted thermogram (lower) for the interaction of GFP-HIF-1α776–826 peptides with p300 (37 °C in 25 mM Tris–HCl, 150 mM NaCl, 1 mM DTT, pH 7.4) using 10 μM p300 in the cell and 100 μM GFP-HIF-1α776–826 variant in the syringe; error bars represent estimated integration errors (d) thermodynamic signatures for each interaction. […]
Error bars represent standard deviation of technical triplicates.
Figure S5 Heat of dilution of (a) GFP titrated to buffer, (b) GFP titrated to p300 and (c) Raw ITC (upper) data and fitted thermogram (lower) for the interaction of GFP-HIF-1α776-826 D823A variant (37 °C in 25 mM Tris-HCl, 150 mM NaCl, 1mM DTT, pH 7.4) using 10 µM p300 in the cell and 100 µM HIF-1α variant in the syringe. ITC experiments were carried out using a Microcal ITC200i instrument (Malvern). All proteins were dialysed against the same buffer prior to experiment, buffer or 10 µM p300 was present in the cell and titrated with 100 µM GFP-HIF-1α or GFP loaded into the syringe using 16 x 2 μL injections with 120 s spacing between the injections. Heats of GFP or GFP-HIF-1α dilution were subtracted from the measurement raw data. Error bars represent the estimated integration errors. […]
as §1, §2, §3, §4

[4] = target: GST-p300 (p300 CH1 domain, residues 330–420) (Homo sapiens, UniProt Q09472); assay: Fluorescence anisotropy direct titration of GFP-HIF-1α776–826 variants with GST-p300; format: binding; conditions: 50 nM GFP-HIF-1α776–826 variant, GST-p300 serial dilution, 25 mM Tris–HCl, 150 mM NaCl, 1 mM DTT, pH 7.4, 27 °C, 1:1 model, ± standard error of fitted value, technical triplicates
Chain of GST-p300 (p300 CH1 domain, residues 330–420) (Q09472 330-420): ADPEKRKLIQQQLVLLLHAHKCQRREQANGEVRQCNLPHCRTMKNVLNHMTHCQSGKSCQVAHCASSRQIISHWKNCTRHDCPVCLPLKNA
Description: To experimentally compare the predictions, we carried out an in vitro biophysical study of several HIF-1α sequence variants. We assessed predicted hot residues and their interactions with p300 using the NMR structure to visualize the structural basis behind the predictions (See ESI, ^† Fig. S2). These analyses helped refine a first series of alanine variants to prepare. […] HIF-1α776–826 sequence variants were recombinantly prepared based on the predictions to test their binding to the recombinantly prepared p300 (Fig. 2). Given the length of the peptide ([…]), this was considered advantageous as it obviates the need to chemically synthesise, label and purify multiple variants. As the C-TAD domain is unstructured in isolation it was recombinantly expressed as a fusion protein with GFP. The green-fluorescent protein (GFP) tag was used for fluorescence anisotropy (FA) experiments to determine the binding affinity of HIF-1α776–826 C-TAD variants to p300. As the CH1 domain of p300 is a small domain of 11 kDa it was recombinantly expressed as a fusion protein with GST to increase its size and thus the signal to noise in the FA experiments. We established an assay where the interaction between GFP-tagged wt HIF-1α776–826 and GST-tagged p300 was monitored by FA, using the fluorescence of GFP. GST dimerises with single digit nM Kd[61] (and in our hands exists as a dimer in size exclusion chromatography analyses, see ESI, ^† Fig. S15 for protein characterization data), thus two molecules of GFP-HIF-1α could bind to the GST-p300 dimer (Fig. 2a). We make the assumption that each p300 binding site behaves independently and analyse the binding isotherm using a 1 : 1 model.
as §5
7.4 buffer or dialysed into 25 mM Tris, 150 mM NaCl, 1 mM DTT pH 7.4 buffer.
GSTp300 protein was serially diluted in buffer (25 mM Tris-HCl, 150 mM NaCl, 1mM DTT, pH 7.4) and GFP-HIF-1α (50nM final concentration) was added, the plates were read after 0 min, 60 min, 4 h and 24 h, and incubated at room temperature in between. Each experiment was run in triplicate and the fluorescence anisotropy measured using an EnVision 2103 MultiLabel plate reader (Perkin Elmer) with excitation at 480 nm and emission at 535 nm (30 nm bandwidths). The recorded temperature for all measurements was 27°C ± 1°C. In parallel, a control experiment was performed in which no GFP-HIF was added and the volume made up with additional buffer, this blank was deducted from the raw data for each of the three repeats.
The intensity was calculated for each point using eqn (1) and used to calculated anisotropy […]
using eqn (2). From a plot of anisotropy against GST-p300 concentration the minimum and maximum anisotropies were obtained using a logistic sigmoidal fit in OriginPro 8.6. This allowed the conversion to fraction bound (eqn (3)). The data were then fitted using eqn (4) in OriginPro 8.6 to determine the dissociation constant, Kd. […]
5 µl injections and 180 s spacing between injections, for 40 injections. Titrations were performed in 40 mM Na-phosphate, pH 7.5 100 mM NaCl, 1 mM DTT buffer except for GFP- […]

[5] = target: T2, p300 CH1 domain (residues 330–420) (UniProt Q09472 330-420); assay: ITC; 10 μM p300 in the cell, 100 μM GFP-HIF-1α 776–826 variant in the syringe; 37 °C; 25 mM Tris–HCl, 150 mM NaCl, 1 mM DTT, pH 7.4; fixed 1:1 stoichiometry; conditions: both partners purified
T2 construct: p300 CH1 domain, residues 330–420; The cleavage of GST is said for the anisotropy control; also called p300 with the GST tag cleaved; source: recombinantly expressed as a fusion protein with GST, GST tag cleaved
T2 sequence (Q09472 330-420): as above

[6] = target: GST-tagged p300 CH1 domain (residues 330–420) (UniProt Q09472); assay: fluorescence polarisation; fluorescence anisotropy by the fluorescence of GFP; GFP-HIF-1α 776–826 variants with GST-p300; 25 mM Tris–HCl, 150 mM NaCl, 1 mM DTT, pH 7.4; 1:1 model, each p300 site of the GST dimer taken as independent
[7] = target: T2, p300 CH1 domain (residues 330–420); assay: ITC; peptide in the syringe, p300 in the cell (Fig. 4: 5 μM protein, 60 μM ligand); 40 mM sodium phosphate, pH 7.5, 100 mM NaCl, 1 mM DTT, 35 °C; single-site model, fixed 1:1 stoichiometry; conditions: both partners purified

T1 sequence (Q09472 330-420): as above

For “Ac-DEEVLMSLVIEMGLDRIKELPELWLGQNEFDFMTDF-NH2 [CITED224–259]”, the “ΔH, expressed peptides” value [1] was -12.4 kcal/mol, the “ΔS, expressed peptides” value [1] was −6.2 cal mol^−1 K^−1 and the “ΔH, synthetic peptides” value [2] was -12.4 kcal/mol. For the same molecule, the “ΔS, synthetic peptides” value [2] was −3.6 cal mol^−1 K^−1.

“Ac-NVIDTDFIDEEVLMSLVIEMGLDRIKELPELWLGQNEFDFMTDFVCKQQPSRVS-NH2 [CITED216–269]” was tested, and the “ΔH, expressed peptides” value [1] was -13.3 kcal/mol, the “ΔS, expressed peptides” value [1] was −7.5 cal mol^−1 K^−1 and the “ΔH, synthetic peptides” value [2] was -13.2 kcal/mol. For the same molecule, the “ΔS, synthetic peptides” value [2] was −10.0 cal mol^−1 K^−1.

In the case of “D823A: GFP-HIF-1α776–826 C-TAD single alanine variant D823A ({GFP}-SDLACRLLGQSMDESGLPQLTSYDCEVNAPIQGSRNLLQGEELLRALAQVN; cysteine pairing not given here)”, the ΔS [3] is reported as −12.2 cal mol^−1 K^−1, the ΔH [3] is reported as -13.0 kcal/mol and the Kd [4] is reported as 192 ± 17 nM.

“E801A: GFP-HIF-1α776–826 C-TAD single alanine variant E801A ({GFP}-SDLACRLLGQSMDESGLPQLTSYDCAVNAPIQGSRNLLQGEELLRALDQVN; cysteine pairing not given here)” was tested, and the ΔS [3] was −9.5 cal mol^−1 K^−1, the ΔH [3] was -12.2 kcal/mol and the Kd [4] was 227 ± 78 nM.

In the case of “HIF-1α L792A: GFP-HIF-1α776–826 C-TAD single alanine variant L792A ({GFP}-SDLACRLLGQSMDESGAPQLTSYDCEVNAPIQGSRNLLQGEELLRALDQVN; cysteine pairing not given here)”, the ΔS [3] is reported as −14.5 ^a cal mol^−1 K^−1 and the ΔH [3] is reported as −13.6 ^a (−13.9, −13.2) kcal mol^−1.

B1: GFP-tagged wt HIF-1α 776–826 C-TAD (domain or fragment, UniProt Q16665 776-826, looked up)
chain: SDLACRLLGQSMDESGLPQLTSYDCEVNAPIQGSRNLLQGEELLRALDQVN
notes: source: recombinantly expressed as a fusion protein with GFP
Work on B1 yielded a Kd [5] of 86 nM, a dH [5] of -17.3 kcal/mol and a Kd [6] of 55 nM.

B2: GFP-HIF-1α 776–826 D823A (domain or fragment, UniProt Q16665 776-826, looked up)
chain: B1 chain with D48A
notes: As m3 with the stated change; also called HIF-1α D823A; source: recombinantly expressed as a fusion protein with GFP
B2 gave a Kd [5] of 369 nM, a dH [5] of -13 kcal/mol and a Kd [6] of 192 nM.

B3: GFP-HIF-1α 776–826 E801A (domain or fragment, UniProt Q16665 776-826, looked up)
chain: B1 chain with E26A
notes: As m3 with the stated change; also called HIF-1α E801A; source: recombinantly expressed as a fusion protein with GFP
B3 gave a Kd [5] of 359 nM, a dH [5] of -12.2 kcal/mol and a Kd [6] of 227 nM.

B4: GFP-HIF-1α 776–826 L792A (domain or fragment, UniProt Q16665 776-826, looked up)
chain: B1 chain with L17A
notes: As m3 with the stated change; measured by ITC only; also called HIF-1α L792A; source: recombinantly expressed as a fusion protein with GFP
B4 gave a Kd [5] of 386 nM and a dH [5] of -13.6 kcal/mol.

B5: HIF-1α 786–826, chemically synthesized peptide (peptide, UniProt Q16665 786-826, looked up)
peptide: Ac-SMDESGLPQLTSYDCEVNAPIQGSRNLLQGEELLRALDQVN-NH2
notes: source: synthetic peptide (chemical synthesis, see ESI)
B5 showed a dH [7] of -25.8 kcal/mol.

B6: HIF-1α 776–826, chemically synthesized peptide (peptide, UniProt Q16665 776-826, looked up)
peptide: Ac-SDLACRLLGQSMDESGLPQLTSYDCEVNAPIQGSRNLLQGEELLRALDQVN-NH2
modifications: cysteine pairing not given here
notes: as for B5
In the case of B6, the Kd [7] is reported as 52.2 nM and the dH [7] is reported as -22.9 kcal/mol.

B7: CITIF, HIF-1α-CITED2 hybrid sequence, chemically synthesized peptide (peptide)
chain: Ac-DEEVLMSLVIEMGLDRIKELPQLTSYDCEVNAPIQGSRNLLQGEELLRALDQVN-NH2
Work on B7 yielded a dH [7] of -22.5 kcal/mol.

— publication PMC9092470, “Understanding p300-transcription factor interactions using sequence variation and hybridization†” (RSC Chemical Biology, 2022)
